Reference: paper doi:10.1101/2024.01.14.575554 (bioRxiv, 2024)

Target: T1, Alexa-488 tagged Hsp60α (Sulfolobus acidocaldarius, UniProt Q9V2T5 1-558, Alexa-488 label (site not stated))
T1 sequence (looked up): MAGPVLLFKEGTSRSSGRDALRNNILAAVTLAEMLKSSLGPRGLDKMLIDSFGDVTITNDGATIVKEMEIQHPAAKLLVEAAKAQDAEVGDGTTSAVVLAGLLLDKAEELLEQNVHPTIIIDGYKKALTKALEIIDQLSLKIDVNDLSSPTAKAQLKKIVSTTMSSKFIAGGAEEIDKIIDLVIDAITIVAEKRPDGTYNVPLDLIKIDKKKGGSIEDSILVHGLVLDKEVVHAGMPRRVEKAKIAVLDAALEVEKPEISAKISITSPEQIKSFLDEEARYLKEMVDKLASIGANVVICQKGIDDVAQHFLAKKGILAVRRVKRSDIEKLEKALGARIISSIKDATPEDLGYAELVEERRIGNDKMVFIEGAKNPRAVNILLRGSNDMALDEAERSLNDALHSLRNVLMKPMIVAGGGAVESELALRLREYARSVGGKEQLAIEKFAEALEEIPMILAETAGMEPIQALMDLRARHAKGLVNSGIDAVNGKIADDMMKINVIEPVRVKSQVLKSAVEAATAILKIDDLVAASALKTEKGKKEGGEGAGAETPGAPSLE
Test: FRET or BRET

B1: Alexa-532 tagged Hsp60β (natural protein, Sulfolobus acidocaldarius, UniProt Q9V2T4 1-553, looked up)
chain: MSATATVATTPEGIPVIILKEGSSRTYGKEALRINIAAVKAVEEALKTTYGPRGMDKMLVDSLGDITITNDGATILDKMDLQHPAAKLLVQIAKGQDEETADGTKTAVIFSGELVKKAEELLYKEIHPTIIVSGYKKAEEMAIKTIEEISTKVSVNDTEILRKVALTSLSSKAVAGAREHLADIVVKAITQVAELRGDKWYVDLDNVQIVKKHGGSINDTQIVYGIIVDKEVVHPGMPKRVENAKIALLDASLEVEKPELDAEIRINDPTQMKKFLDEEENILKEKVDKIAQTGANVVICQKGIDEVAQHYLAKKGILAVRRAKKSDLEKLARATGGRVVSNIDELTSQDLGYATLVEERKIGEDKMVFIEGAKNPKAVSILIRGGLERVVDETERALRDALGTVADVVRDGRAIAGGGAVETEIAKRLRKYAPQVGGKEQLAIEAYANALESLVMILIENGGFDPIELLVKLRSAHENETNKWHGINVYTGQIQDMWSLGVIEPAVVKMNAIKAATEASTLILRIDDLISAGKKSEGKTGEKKESEKGKEED
modifications: Alexa-532 label (site not stated)
Binder B1 has a Kd of 0.167 ± 0.0017 µM.
